Here are results for 40 sequences from the nanobody polyreactivity screen of Harvey et al. (2022).

The series in a line: yeast display, Sf9 membrane polyspecificity reagent, FACS + sequencing; frameworks hold sequencing errors. The gist of the method:
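Synthetic nanobody libraries on Saccharomyces cerevisiae BJ5465 were galactose-induced for 36–48 hours, stained 1 hour at 4 °C with 10% biotinylated, detergent-solubilized Sf9 membrane reagent and enriched on streptavidin microbeads. FACS then separated cells into low and high (top ~1%) gates by anti-HA (expression) and streptavidin (reagent binding) fluorescence. Genes were colony-PCR amplified, MiSeq 2 × 250 sequenced and CDR-length filtered. A clone's polyreactivity label is that of its gate of origin.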
“QVHLVESGGGLVQAGGSLRLSCAASGSIFGYYTMGWYRQAPGKERELVAGIDFITTSTYYADSVKGRFTISRDNAKNTVSLQMNSQKPEDTAVYYCAAYGPLTGYDYWGQGTQVTVSS”: the “polyreactivity (PSR sort gate)” value was “low polyreactivity”. For “QVHLVESGGGLVQAGGSLRLSCAASGSIFHRYAMGWYRQAPGKEREFVAAISRSGGSSNYADSVKGRFTISRDNAKNTVYLQMNSLKPEDTAVYYCAARTVTTGGSRYDYWAQGTQVTVSS” the value was “high polyreactivity”. As to “QVHLVESGGGLVQAGGSLRLSCAASGSIFNLYGMGWYRQAPGKERELVASITSSGTRTYYADSVKGRFTISRDNAKNTVYLQMNSLKPEDTAVYYCAAGSYLRSNRGYWGQGTQVTVSS”, the “polyreactivity (PSR sort gate)” value was “high polyreactivity”. Take “QVHLVESGGGLVQAGGSLRLSCAASGSIFPYAMGWYRHAPAKERELVAVISWSGASTYYADSVKGRFTISRDNAKNTVYLQMNSLKQEDTAVYYCAVYRYYKLVHLYGYDYWGQGTQVTVSS”: the “polyreactivity (PSR sort gate)” value was “high polyreactivity”.

In the case of “QVHLVESGGGLVQAGGSLRLSCAASGSIFVYNAMGWYRQAPGKERELVAAIDTVGSTNYADSVKGRFTISRDNAKNTVYLQMNSLKPEDTAVYYCAVVTTYWSFYEQVIPSNYWGQGTQVTVSS”, the “polyreactivity (PSR sort gate)” value is listed as “low polyreactivity”. The value for “QVHLVESGGGLVQAGGSLRLSCAASGSILLWNTMGWYRQAPGKERELVADIRLSASSTYYADSVKGRFTISRDNAKNTVYLQMNSLKPEDTAVYYCAADEYTPEYCQGYDYWGQGTQVTVSS” was “low polyreactivity”; that for “QVHLVESGGGLVQAGGSLRLSCAASGSISLNAMGWYTQAPGKERELDAGISNDDGTNYADSVKGRFTISRDNAKNPVYLQMNSLKPEDTAVYYCNAERDFVEDYWTYLRYDYWGQGTQVTVSS” was “low polyreactivity”. The value for “QVHLVESGGGLVQAGGSLRLSCAASGSTFAKYAMGWYRQAPRKERELDASIRLSGGSTYYADSVKGRFTISRDNAKTTVYLLMNSQKPEDTAVYYCNKQFATFYYGFDYYYWGQGTQVTVSS” was “low polyreactivity”; that for “QVHLVESGGGLVQAGGSLRLSCAASGSTFDAYDMGWYRQAPGKERELVAAISSSGGSTYYADSVKGRFTISRDNAKNTVYLQMNSLKPEDTAVYYCAADWSVWDYDYWGQGTQVTVSS” was “low polyreactivity”; that for “QVHLVESGGGLVQAGGSLRLSCAASGSTFGGNAMGWYRQPPGKERELVAAISSGDSTTYADSVKGRFTISRDNAKNTVYLQMNSLKPEDTAVYYCNADYTDTLTGYFSDEVYHGMDYWGQGTQVTVSS” was “low polyreactivity”. With “QVHLVESGGGLVQAGGSLRLSCAASGSTFGRNAMGWYRQAPGKERELVAAISRGGGITYYADSVKGRFTISRDNAKNTVYLQMTSLKPEDTAVYYCNAYLSKYFRYDYWGQGTQVTVSS”, the “polyreactivity (PSR sort gate)” value is recorded as “high polyreactivity”.

On to “QVHLVESGGGLVQAGGSLRLSCAASGSTFGYYDMGWYRQAPGKERELVATISSGGGTNYADSVKGRFTISRDNAKNTVYLQMNSLKPEDTAVYYCAVTYGSKKARYSIYPRYGYWGQGTQVTVSS”, for which the “polyreactivity (PSR sort gate)” value was “low polyreactivity”. For “QVHLVESGGGLVQAGGSLRLSCAASGSTFRKYAMGWYRKAPGKERELDAAITSSGGRTYYADSVKGRFTISRDNAKNSVYLPLNSLKPEDTAVYYCAAGGPRFYSWRSEYDYWGQGTQVTVLS” the value was “high polyreactivity”; for “QVHLVESGGGLVQAGGSLRLSCAASGSTFRYYAMGWYRQAPGKERELVATINRSGGSTYYADSVKGRFTISRDNAKNTVYLQMNSLKPEDTAVYYCAATHYYSHFLWFASNYDYWGQGTQVTVSS”, “high polyreactivity”; for “QVHLVESGGGLVQAGGSLRLSCAASGSTFVRNVMGWYRQAPGKERELVAAITRSGDTTYYADSVKGRFTISRDNAKNTVYLQMNSLKPEDTAVYHCAKRTFVRRGSIYPIDDYWGQGTQVTVSS”, “low polyreactivity”. The value for “QVHLVESGGGLVQAGGSLRLSCAASGSTFVYNTMGWYRQAHGKERELVASISSDGNTDYADSVKGRFTISRDNAKNTVYVQMNSLKPEDTAVYYCAARYYYDWRFVGYDYWGQGTQVTVSS” was “low polyreactivity”; that for “QVHLVESGGGLVQAGGSLRLSCAASGSTFWYNAMRWYRQAPGKERELVASIDDIGGSTYYADSVKGRFTISRDNAKYTVYLQMNSLKPEDTAVYYCAKDYGSSYVTDSDYWGQATQVTVSS” was “low polyreactivity”. As for “QVHLVESGGGLVQAGGSLRLSCAASGSTFYANAMGWYRQAPGTERELVAAITSGGSTNYADSVKGRFTISRDNAKNTFYLQMNSLKPEDTAVYYCAADGGDQERGDYWGQGTQVTVSS”, the “polyreactivity (PSR sort gate)” value was “low polyreactivity”. “QVHLVESGGGLVQAGGSLRLSCAASGSTFYVYAMGWYRQAPGKERELVAAISTSTGNTYYADSVKGRFTISRDNAKNTVYLQMNSLKPEDSAVYDCANSGSSSHYYSWGQGTQVTVSS”: the “polyreactivity (PSR sort gate)” value was “low polyreactivity”. For “QVHLVESGGGLVQAGGSLRLSCAASGSTFYYYVMGWYRQAPGKERELVAAINISGGNTYYADSVKGRFTISRDNAKNTVYLKKNSLIPEDTAVYYCAADYRSSRTTEYYYWGQGTQVTVSS” the value was “low polyreactivity”; for “QVHLVESGGGLVQAGGSLRLSCAASGSTIDIYDMGWYRQAPGKERELVAAISIGTYADSVKGRFTISRDNAKNTVYLQMNSLKPEDTAVYYCAAQTDTWGYGYDYWGQGTQVTVSS”, “high polyreactivity”; for “QVHLVESGGGLVQAGGSLRLSCAASGSTIRFNAMGWYRQAPGKERELVAAISGSGGSTYYADSVKGRFTISRDNAKKTVYLQMNSLKPEDTAVYYCAASASSRSYFKSYYWGQGTQVTVSS”, “high polyreactivity”. For “QVHLVESGGGLVQAGGSLRLSCAASGSTIYYNAMGRYRQAHGKERELVPRISRSGGSTYADSVKGRFTISRDNANNTVYLQMNSLKPEDTAVYYCNADPWWRFDYWGQGTQVTVSS” the value was “low polyreactivity”. For “QVHLVESGGGLVQAGGSLRLSCAASGSTKGNNAMGWYRQATGKERELVAAISTRGGSTYYADSVKGRFTISRDNAKNTVYLQMNSLKPEDTAVYYCAADFGQYHGAVRKMDYWGQGTQVTVSS”, the “polyreactivity (PSR sort gate)” value is given as “low polyreactivity”. The value for “QVHLVESGGGLVQAGGSLRLSCAASGVIFFYYAMGWYRQAPGKESELVAVIDRSGGTTYYADSVKGRFTISRDNAKNTVYLQMNSLKPEDTAVYYCNADDFTYPSGWGFIYDYWGQGTQVTVSS” was “low polyreactivity”; that for “QVHLVESGGGLVQAGGSLRLSCAASGYIFKVNAMGWYRQATRKERELVAAISSDGGSTYADSVKGRFTISRDNAKNTVYLEFYSLKTEDTAVYYCNVDLESERDPPKYVYWGQGTQVTVSS” was “low polyreactivity”; that for “QVHLVESGGGLVQAGGSLRLSCAASGYTFSRNAMGWYRQAPGKERELVASISSRGGSTRYADSVKGRFTISRDNAKNTVYLQMNSLKPEDTAVYYCAVRGLYSPFTYGYWGQGTQVTVSS” was “high polyreactivity”. Turning to “QVHLVESGGGLVQAGGSLRLSCAASGYTFYANAMGWYRQAPGKEREFVASITWSGGSTYYADSVKGRFTISRDNAKNTVYLQKNSLKPEDTAVYYCAAESWFKYDYWGQGTQVTVSS”, the “polyreactivity (PSR sort gate)” value is reported as “low polyreactivity”.

Regarding “QVHLVESGGGLVQAGGSLRLSCAASGYTSKTYAMGWYRQAPGKEMELVAAINWGSGSTYYADSVKGRFTISRDNAKNTVYLQMNSLKPEDTAVYYCAAEGYYNWYVGYGYWGQGTQVTVSS”, the “polyreactivity (PSR sort gate)” value is “high polyreactivity”.

As to “QVHLVESGGGLVQAGGSLRLSCAATGSTFPSYTMGWYRQAPGKERELVAVITLRGGSTYYADSVKGRFTISRDNAKNTVYLQMNSLKPEDTAVYYCAANGQLQGWFDMYYWGQGTQVTVSS”, the “polyreactivity (PSR sort gate)” value is “low polyreactivity”. The value for “QVHLVESGGGLVQAGGSLRLSCADSGSTFVAYAMGWYRQAPGKERDLVAAISKSGVRTYYADSVKGRFTISRDNAKNTVYLVMISLKPEDNAVYVCAADSGDLWGPFGYWGQGTQVTVSS” was “low polyreactivity”; that for “QVHLVESGGGLVQAGGSLRLSCAPSGRIFFPYAMGWYRQAPGKEREFVAAIRRSGGSTYYADSVKGRFTISRDNAKNTVYLQMNSLKPEDTAVYYCNAPLKRYGYYKYGYWGQGTQVTVSS” was “high polyreactivity”; that for “QVHLVESGGGLVQAGGSLRLSCASSGRIFEAYAMGWYRQAPGKERELVAAISGSGGSTYYADSVKGRFTISRDNAKNTVYLQMNSLKPEDTAVYYCAARYFVGKGLGYWGQGTQVTVSS” was “high polyreactivity”.

Regarding “QVHLVESGGGLVQAGGSLRLSCASYGRTFGIYAMGWYRQAPGKERELVATISWRGGSTYYADSVKGRFTISRDNAKNTVYLQMNSLKPEDTAVYYCAAETWYSGYTYDYWGQGTQVTVSS”, the “polyreactivity (PSR sort gate)” value was “low polyreactivity”.

In the case of “QVHLVESGGGLVQAGGSLRLSCDASGITFRRYGMGWYRQAPGKERELVATITSSVGSRTYYADSVKGRFTISRDNAKNTVYLQMNSLKPEDTAVYYCAADHRVYDYEYWGQVTQVTVSS”, the “polyreactivity (PSR sort gate)” value was “low polyreactivity”. Consider “QVHLVESGGGLVQAGGSLRLSCDASGSIFNTYAMGWYRQAPGKESELVATITSGDRTYYADSVNGRFTISRDNAKNSVYLQMNSLNPEDTAVYYCAKRHWFQYRRPDLGRFDYWGQGTQVTVSS”, for which the “polyreactivity (PSR sort gate)” value is listed as “high polyreactivity”. Regarding “QVHLVESGGGLVQAGGSLRLSFAASGIILYDYAMGWNRQAPGKEREMVAGINRSGGITYYADSVKGRFTISRDNAKNTVYFQMNSLIPEDTAVYYCNAVFRYGATRSYRYDYWGQGTQVTVSS”, the “polyreactivity (PSR sort gate)” value is given as “high polyreactivity”. In the case of “QVHLVESGGGLVQAGGSLRLSFAASGSIFYFNAMGWYRQAPGKERELVAAINYSGGSTYYADSVKGRFTISRDNAKNTVYLQRNSLKPEDTAVYYCAAVTYFGWYPYRMEYWGQGTQVTVSS”, the “polyreactivity (PSR sort gate)” value was “high polyreactivity”.

As to “QVHLVESGGGLVQAGGSLRLSFAASGSTFEDNAMGWYRQAPGKERELVAGISTNGGSTSYADSVKGRFTISRDNAKNTVYLQMNSLKPEVTAVYYCAKGLYVQFDYWGQGTQVTVSS”, the “polyreactivity (PSR sort gate)” value is given as “low polyreactivity”. The value for “QVHLVESGGGLVQAGGSLRLSFAASGYTLSDNAMGWYRQAPGKERELVATIDFGGGSTYYADSVKGRFTISRDNAKNTVYLQRNSLKPEDTAVYYCNTEWTSLSTSSLGGRYDHWGQGTQVTVSS” was “low polyreactivity”.
